This sample holds only a part of the variants without activity.
B1: TPR 5TU (parent)
chain: GGAUCUUCUCGAUCUAACAAAAAAGACAAAUCUGCCACAAAGCUUGAGAGCAUCUUCGGAUGCAGAGGCGGCAGCCUUCGGUGGCGCGAUAGCGCCAACGUUCUCAACUAUGACACGCAAAACGCGUGCUCCGUUGAAUGGAGUUUAUCAUG

Variants of: B1
Assay: polymerase ribozyme fitness, log enrichment relative to wild type (log ratio); higher = more active; in vitro selection for triplet polymerase activity
How it was run: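 Mutant libraries of each subunit of a heterodimeric triplet polymerase ribozyme were built by PCR and transcribed. Each library went through one round of in vitro selection in triplicate: annealing with biotinylated primer, partner subunit and triplets, frozen incubation at −7 °C, gel excision of extended constructs, streptavidin-bead capture and RT-PCR. Input and output libraries were Illumina-sequenced; only genotypes with ≥10 input reads and ≥1 read per output were kept. Fitness is log2(genotype enrichment/wild-type enrichment), using inverse-variance-weighted replicate averages.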

Row | Variant | polymerase ribozyme fitness (log ratio)
1 | A23G C54A | -3.28
2 | A24U A30C G48U A60G G94C U109G A113U | ≤ -4.2
3 | A23U G34A U53G G74A U139A | ≤ -4.2
4 | A22U C38A G50U U56A C75G C93U U134A | ≤ -4.2
5 | A22U C93U | -1.47
6 | A23C A29G C96G U139G | -4.19
7 | A24U A40C A47U C69U C93U C118U U145A | -4.16
8 | A23G G94U U148C | ≤ -4.2
9 | G25C U44A A66G G71A A91U C131U C132G | ≤ -4.2
10 | A24G C87U | -2.3
11 | G25C C57U | -2.94
12 | A23G A37G C95A C118G G140A | ≤ -4.2
13 | A24U G141A | 0.58
14 | A24U C57A G83U A97U U146A | -1.51
15 | G25C A91U C96U C99A C108A A138G | ≤ -4.2
16 | A23C G58A C96U A106G | ≤ -4.2
17 | A22U C85U U134G G143C C149A | ≤ -4.2
18 | A22G U55A U61A G94U | -3.37
19 | A22U U55A C57A C85G | -1.44
20 | G25A C75A A91U | ≤ -4.2
21 | A22U A28U U104G | ≤ -4.2
22 | G25A A39G G68C C95U | ≤ -4.2
23 | A23U A24U A73G G88A A91C C114U | ≤ -4.2
24 | G25A U44G U77A G83U U104A | ≤ -4.2

Row | Variant | polymerase ribozyme fitness (log ratio)
25 | A23G A41C U44C A49C G58C A64C C85U A138G | ≤ -4.2
26 | A22U A91G | -3.05
27 | A24U C36U A60G G80A G94C | -3.57
28 | A24C C43A U45A | ≤ -4.2
29 | A24U G65U A91C U104A A110G G140A U144G | ≤ -4.2
30 | A24U A52C U56A A73G C93U | -3.52
31 | A24G U55A C57U A73U U82G G92A A97U G141C | ≤ -4.2
32 | A24C C96G C118A | -4.19
33 | A23C C118U U144A | ≤ -4.2
34 | A24G A40U U61C A137C A142C | ≤ -4.2
35 | A24U U53A | -0.894
36 | A23U G70U U78A G94A C95U C114U | ≤ -4.2
37 | A24C U44A G50U U55A | ≤ -4.2
38 | A23U A28G C32G C85U G128U C129A U146G | -4.14
39 | A22G G83C | -0.878
40 | A24C C54G G74A U82A A89U U146A | ≤ -4.2
41 | A23G C27A C32U G50C A73G C85G | ≤ -4.2
42 | A24G G92C | -2.81
43 | A23U C54G U61A C72A G86A G141A | ≤ -4.2
44 | A24U C96A | 0.632
45 | A24G A60G G68A G86C G124C | ≤ -4.2
46 | A23G C96U | -2.56
47 | A22U U53A G92A G141A | -3.56
48 | A24U A40G C57A C96A C99U U134A | ≤ -4.2

Row | Variant | polymerase ribozyme fitness (log ratio)
49 | G25A C79G U90A U104A G117U | ≤ -4.2
50 | A23U A73U G88C | ≤ -4.2
51 | A24U A66C A73G C79G C87A G88U C116A C118A | ≤ -4.2
52 | A24U C85G | -2.77
53 | A24U C85A | -1.22
54 | A24U U44G A66C G143A | -4.09
55 | G25A A40G C43U G62C C85U G86A C95A G133U | ≤ -4.2
56 | A24G C79A C96A G141A | ≤ -4.2
57 | A23C U53C G58U G94C A115U C129U | ≤ -4.2
58 | A24G C123U G140C | ≤ -4.2
59 | A23U A47G U55A | ≤ -4.2
60 | A24G G83C U101G C123A G141U | ≤ -4.2
61 | A22U C54A G59C A122C G141A | -0.175
62 | G25C G83A A107C U134G | ≤ -4.2
63 | G25C U53G C57A A120C G128A | ≤ -4.2
64 | A24U A52U C95U | -1.25
65 | A23U C118U | -3.62
66 | A23U A52C | ≤ -4.2
67 | A22U C43A G86A U90A | ≤ -4.2
68 | A23U G48A A113G A120U | ≤ -4.2
69 | A23U G58C G68A C79G A150G | ≤ -4.2
70 | A24U A39U U56A G94A | -3.21
71 | A22U A24G C43U C57G G59A A89G G92C U135A | ≤ -4.2
72 | A24U A39U A89C | -4.16

Row | Variant | polymerase ribozyme fitness (log ratio)
73 | A24U C27G C38U C87U A91G C93G G133U | ≤ -4.2
74 | A23G A24U G58A A60G C85G U101A G128A U130C U144G | ≤ -4.2
75 | A24U C114G | -3.34
76 | A24G A40U C43U A49C G84A G100U G124A C125G U145G | ≤ -4.2
77 | A24C G58C C72G U130G | ≤ -4.2
78 | A22U A89U C105U | 0.731
79 | A23C C35A C87A | -4.05
80 | A24C G46A C57G C75G A89G C96G | ≤ -4.2
81 | A23C C131G U134G | ≤ -4.2
82 | A23U C76G C93G | ≤ -4.2
83 | A24U C76A C85A | -1.65
84 | A23U C54U C57U G68A C87A A91G G133U | ≤ -4.2
85 | A22U A30C C32A A60C C85G G86A A89U A110G U135G U144G | ≤ -4.2
86 | G25A A29C A40U G68C C93A A97U | ≤ -4.2
87 | A24U A98G | 0.444
88 | G25A U33C C35A A73C A91G G117A C118U | ≤ -4.2
89 | A22U G70U C87A A119U | ≤ -4.2
90 | A23U U56A C93A U101G U127A A137U U139A C149A | ≤ -4.2
91 | A24U A47U G50A G59U A60G C87U C103G U109A A110G | -4.01
92 | A22U A24U G141U | 1.41
93 | G25C G48U U55A C85U A147C | -3.98
94 | A22U C35A G65A C69A C116U G117C | -3.86
95 | A22G G80A G86A C93A | -4.2
96 | A22U A47C U55G G84U C125G | -3.06

Row | Variant | polymerase ribozyme fitness (log ratio)
97 | A23C U55A | -3.85
98 | A24U C93U | -1.27
99 | A22U A49U U55A G84U G100U C108U | ≤ -4.2
100 | A23U C35A A60G G84C G86A C96A G140U | ≤ -4.2
101 | A22U C75G C76U G94C A110U A147U | ≤ -4.2
102 | A24U C35A U45G A47C G48C A64C C93G | ≤ -4.2
103 | G25C A41C C96G A110G U148C | ≤ -4.2
104 | A24U U44A C57G G74U C76A G100A A138C | ≤ -4.2
105 | A22U | 0.491
106 | G25A G68U U78C A91G C114G | ≤ -4.2
107 | A23C G34U | -3.82
108 | A24U C54A | -0.922
109 | A24U C93U C125G G133A A142G A150U | ≤ -4.2
110 | A22U A23U G70U C85U A89C A120G U144A | ≤ -4.2
111 | G25A C35U G50C G88U C118G U151G | ≤ -4.2
112 | A24G A26U C38U A47U C85U C116U C125A | ≤ -4.2
113 | A24G U56A A121C G133C | ≤ -4.2
114 | A23C U53A C57U C96G C103G | ≤ -4.2
115 | A22U U55G | -0.206
116 | A22U C38U U53A G74C U90C A120U | ≤ -4.2
117 | A24C A52G G84C G88U C95U C96U U102G | ≤ -4.2
118 | G25C A37C C76A U101G U148G | ≤ -4.2
119 | A22G G92C | 0.21
120 | A24G C27U G42C U55G | ≤ -4.2

Row | Variant | polymerase ribozyme fitness (log ratio)
121 | A23G C76U C85A | ≤ -4.2
122 | A23C A41C C85A U90G G124U U135G | ≤ -4.2
123 | A23U A24U U56A A106C A150U | -3.89
124 | A22U A37C C96U A142C | -1.63
125 | A23G C27U C93G C103G A150G | ≤ -4.2
126 | A22U U61G G86A U104G | ≤ -4.2
127 | A23C G25A C32A C63U C87A | ≤ -4.2
128 | A22U G25U C35U C76G G126U U135A | ≤ -4.2
129 | A24U G50U G143C | -2.91
130 | G25A U44G C85U A106C | ≤ -4.2
131 | A24G C35U | -3.09
132 | A22U U53C G92U | -0.0274
133 | G25A U31A C51U G81C G84U G152U | ≤ -4.2
134 | A24G C43U A73G G83U U101G C105G U127C G140C | ≤ -4.2
135 | A24C G48C C118G | ≤ -4.2
136 | A23U U56A | -3.49
137 | A22U C32U A47U G83A C125U | ≤ -4.2
138 | A24U A39G C51U C57A C85U C129G | ≤ -4.2
139 | A23C C79U C96U C99A | ≤ -4.2
140 | A23G A47C C103G A122G U145A | ≤ -4.2
141 | A24U C87G C96U | ≤ -4.2
142 | A22U C35A A41C U53G C87U A97C C108U U151A | ≤ -4.2
143 | A23C G81A A91U G143A | ≤ -4.2
144 | A24U C79A | -4.12

Row | Variant | polymerase ribozyme fitness (log ratio)
145 | A23C C72U C87A C96U C105U | ≤ -4.2
146 | A24U G83C C99G | -4.19
147 | A24C U55A A60G A97U | ≤ -4.2
148 | A22U U82C C93G C103G U151G | ≤ -4.2
149 | A22U C38U A73U C96U | 0.145
150 | A23U U139A | ≤ -4.2
151 | A22U C57U | -0.0575
152 | A24U A47U C96U C116A G133A C149G | ≤ -4.2
153 | A24U C38A | 0.851
154 | A22U G48C G50U A120U U145C | -2.9
155 | A24G A52C A110U | ≤ -4.2
156 | A22G G86U | -0.647
157 | A22U A52C C99U | -1.89
158 | A24C C87U | -3.57
159 | A24C C69A C105A C114U A122U | ≤ -4.2
160 | A22U G59A U101A | 0.375
161 | A23G U56A | -2.39
162 | A24C G58A G112U A122G | ≤ -4.2
163 | A23U C79U U101G G141C | ≤ -4.2
164 | A24G C54U | -2.83
165 | A23C G42C U77A G80C U101G | ≤ -4.2
166 | A24U C35U C96U C105U A147G | -3.09
167 | A23C A41C C54G U77A A91G C105G G126A G136A A137G | ≤ -4.2

Source: the RNAGym collection of RNA variant scans (doi:10.1073/pnas.2313332121)
